Laboratory results from the supplement of paper PMC11908140.

B1: library; numbered along this chain (parent)
chain: MRKPRAAVGSGHRKQAASQEGRQKHAKNNSQAKPSACDGLARQPEEVVLQASVSSYHLFRDVAEVTAFRGSLLSWYDQEKRDLPWRRRAEDEMDLDRRAYAVWVSEVMLQQTQVATVINYYTGWMQKWPTLQDLASASLEEVNQLWAGLGYYSRGRRLQEGARKVVEELGGHMPRTAETLQQLLPGVGRYTAGAIASIAFGQATGVVDGNVARVLCRVRAIGADPSSTLVSQQLWGLAQQLVDPARPGDFNQAAMELGATVCTPQRPLCSQCPVESLCRARQRVEQEQLLASGSLSGSPDVEECAPNTGQCHLCLPPSEPWDQTLGVVNFPRKASRKPPREESSATCVLEQPGALGAQILLVQRPNSGLLAGLWEFPSVTWEPSEQLQRKALLQELQRWAGPLPATHLRHLGEVVHTFSHIKLTYQVYGLALEGQTPVTTVPPGARWLTQEEFHTAAVSTAMKKVFRVYQGQQPGTCMGSKRSQVSSPCSRKKPRMGQQVLDNFFRSHISTDAHSLNSAAQ

Variants of: B1
Assay: 8OG:A repair function score (normalized; synonymous = 0, nonsense = -1) (normalized log-likelihood score); higher = more repair activity (WT-like)
Details: with 8OG:A DNA repair reporter (GFP) in HEK-293 MUTYH KO cells
Procedure: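 Saturation mutagenesis (NNN codon scan) of the MUTYH cDNA (521-aa nuclear isoform NM_001048174.1 / NP_001041639), stably expressed under doxycycline induction in HEK-293 MUTYH knockout cells. Cells were co-transfected with an 8OG:A-bearing GFP repair reporter plus mCherry and sorted 72 h later into GFP+ and GFP− bins, three replicates per tile. The Rosace log2 enrichment (GFP+ vs GFP−) was converted per tile to a normalized function score with synonymous variants centered at 0 and nonsense variants (codons 1-471) at -1; low-abundance variants were removed.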

First: Q426A
Second: L184P
The “8OG:A repair function score” value of the first is higher: -0.0345 for the first, -1.21 for the second.

First: Q181E
Second: H407S
The “8OG:A repair function score” value of the first is higher: 0.0231 for the first, -0.109 for the second.

Compared with H407Q, H407R is lower in “8OG:A repair function score” value: 0.0383 for the first, -0.0136 for the second.

First: A135M
Second: T406F
The “8OG:A repair function score” value of the first is higher: -0.467 for the first, -0.539 for the second.

Going from T406L to G70T, the “8OG:A repair function score” value falls from -0.249 to -0.693.

First: A63L
Second: A63Q
The “8OG:A repair function score” value of the first is higher: -0.00968 for the first, -0.105 for the second.

Going from L139M to R409S, the “8OG:A repair function score” value rises from -0.053 to 0.0978.

Compared with Q286Y, Q286F is higher in “8OG:A repair function score” value: -0.0193 for the first, -0.00865 for the second.

Compared with V104E, V104I is higher in “8OG:A repair function score” value: -0.936 for the first, -0.19 for the second.

First: A101L
Second: P494D
The “8OG:A repair function score” value of the first is lower: -0.0936 for the first, -0.00383 for the second.

First: G309L
Second: A259T
The “8OG:A repair function score” value of the first is higher: -0.0772 for the first, -0.329 for the second.

Going from A203G to A196P, the “8OG:A repair function score” value falls from -0.165 to -1.11.

Compared with A196F, S231F is higher in “8OG:A repair function score” value: -0.939 for the first, -0.24 for the second.

Going from S231T to G368P, the “8OG:A repair function score” value falls from 0.0918 to -0.423.

First: G368A
Second: G368Y
The “8OG:A repair function score” value of the first is higher: -0.292 for the first, -0.663 for the second.

Going from R2G to R2A, the “8OG:A repair function score” value falls from 0.122 to -0.0711.

Compared with W103A, V107A is higher in “8OG:A repair function score” value: -0.808 for the first, 0.0286 for the second.

First: V107K
Second: E168S
The “8OG:A repair function score” value of the first is lower: -0.731 for the first, -0.0595 for the second.

Compared with E168I, V218E is lower in “8OG:A repair function score” value: -0.134 for the first, -0.985 for the second.

Compared with S298Y, P331F is lower in “8OG:A repair function score” value: -0.0154 for the first, -0.357 for the second.

Compared with A291Y, A291I is lower in “8OG:A repair function score” value: 0.0195 for the first, -0.0181 for the second.

Compared with L58Q, H420I is lower in “8OG:A repair function score” value: -0.00261 for the first, -0.666 for the second.

Compared with L49D, P316G is lower in “8OG:A repair function score” value: 0.0266 for the first, 0.00918 for the second.

Compared with A199I, S486L is higher in “8OG:A repair function score” value: -0.536 for the first, 0.00981 for the second.

First: E382T
Second: G222A
The “8OG:A repair function score” value of the first is higher: 0.196 for the first, -0.213 for the second.

Compared with G170T, H57I is lower in “8OG:A repair function score” value: -0.248 for the first, -0.613 for the second.

First: Y190D
Second: Q473M
The “8OG:A repair function score” value of the first is lower: -0.858 for the first, 0.0265 for the second.

Going from P488V to V441A, the “8OG:A repair function score” value falls from -0.00252 to -0.0435.

Going from N366L to V362Y, the “8OG:A repair function score” value falls from -0.0714 to -0.434.

Compared with V165W, C216W is lower in “8OG:A repair function score” value: -0.957 for the first, -1 for the second.

Compared with C216L, R189Q is higher in “8OG:A repair function score” value: -0.469 for the first, -0.208 for the second.

Compared with R189K, R189T is lower in “8OG:A repair function score” value: -0.0681 for the first, -0.184 for the second.

First: Q358K
Second: S483D
The “8OG:A repair function score” value of the first is higher: 0.0561 for the first, 0.0208 for the second.

First: T346H
Second: T346L
The “8OG:A repair function score” value of the first is lower: -0.35 for the first, -0.0228 for the second.

First: V458A
Second: T455M
The “8OG:A repair function score” value of the first is lower: -0.667 for the first, -0.111 for the second.

First: R157H
Second: R157M
The “8OG:A repair function score” value of the first is lower: -0.0973 for the first, -0.0764 for the second.

Compared with D77H, T308Q is higher in “8OG:A repair function score” value: -0.228 for the first, 0.0017 for the second.

First: G171P
Second: R281G
The “8OG:A repair function score” value of the first is lower: -1.16 for the first, -0.264 for the second.

Compared with R281Y, S480Y is higher in “8OG:A repair function score” value: -0.0264 for the first, -0.0114 for the second.

First: S518V
Second: R219Q
The “8OG:A repair function score” value of the first is higher: -0.01 for the first, -0.682 for the second.

Going from V65K to M462R, the “8OG:A repair function score” value falls from 0.00609 to -1.12.

Going from M462E to L315I, the “8OG:A repair function score” value rises from -0.603 to -0.0865.

Compared with L315V, L315G is lower in “8OG:A repair function score” value: -0.0921 for the first, -0.123 for the second.

Compared with P174E, G258T is lower in “8OG:A repair function score” value: -0.932 for the first, -1.21 for the second.

First: P437H
Second: Q394S
The “8OG:A repair function score” value of the first is higher: 0.0786 for the first, -0.0073 for the second.

Compared with A51L, A51H is higher in “8OG:A repair function score” value: -0.036 for the first, 0.0322 for the second.

Compared with P247D, P377I is higher in “8OG:A repair function score” value: -1.03 for the first, -0.348 for the second.

Going from P377A to K127A, the “8OG:A repair function score” value rises from -0.486 to -0.303.

Compared with R88M, A456Q is lower in “8OG:A repair function score” value: -0.0202 for the first, -0.514 for the second.

Compared with E160P, E160C is higher in “8OG:A repair function score” value: -0.814 for the first, -0.0918 for the second.

Going from G248D to S459V, the “8OG:A repair function score” value rises from -0.876 to -0.746.

Compared with S459W, R446E is higher in “8OG:A repair function score” value: -0.631 for the first, -0.312 for the second.

First: Q363H
Second: A254H
The “8OG:A repair function score” value of the first is higher: 0.0355 for the first, -0.175 for the second.

First: R389C
Second: G39K
The “8OG:A repair function score” value of the first is lower: -0.13 for the first, 0.121 for the second.

Going from G39D to L392H, the “8OG:A repair function score” value falls from 0.118 to -0.963.

Going from Y76A to F376Q, the “8OG:A repair function score” value falls from -1.05 to -1.35.

First: M173D
Second: H508Q
The “8OG:A repair function score” value of the first is lower: -0.926 for the first, 0.000578 for the second.

First: H508T
Second: D243M
The “8OG:A repair function score” value of the first is higher: 0.0103 for the first, -0.753 for the second.

First: T116M
Second: N119D
The “8OG:A repair function score” value of the first is lower: -0.441 for the first, -0.419 for the second.

First: Q265C
Second: T436L
The “8OG:A repair function score” value of the first is lower: -0.0499 for the first, 0.548 for the second.

Compared with P443S, C269G is lower in “8OG:A repair function score” value: 0.0247 for the first, -1.26 for the second.

Compared with L134I, R246T is lower in “8OG:A repair function score” value: -0.101 for the first, -0.728 for the second.

First: E275T
Second: V142L
The “8OG:A repair function score” value of the first is higher: 0.0286 for the first, -0.245 for the second.

Going from V142W to V142F, the “8OG:A repair function score” value rises from -0.941 to -0.926.

First: E413F
Second: M478T
The “8OG:A repair function score” value of the first is higher: 0.0141 for the first, -0.0383 for the second.

Compared with M478L, R86I is lower in “8OG:A repair function score” value: -0.0153 for the first, -0.915 for the second.

Going from E341C to I359W, the “8OG:A repair function score” value rises from -0.0275 to 0.0132.

Going from I359D to C477P, the “8OG:A repair function score” value rises from -0.946 to -0.00239.

Compared with T228D, T228P is higher in “8OG:A repair function score” value: -0.245 for the first, 0.212 for the second.

Compared with G148C, P185A is higher in “8OG:A repair function score” value: -0.72 for the first, -0.225 for the second.

Going from E319S to A212W, the “8OG:A repair function score” value falls from 0.0138 to -0.596.

First: Q484A
Second: Q484L
The “8OG:A repair function score” value of the first is lower: 0.00718 for the first, 0.00769 for the second.

Compared with L290Y, L290A is higher in “8OG:A repair function score” value: -0.0918 for the first, -0.0163 for the second.

Compared with R156L, F453H is lower in “8OG:A repair function score” value: -0.142 for the first, -0.758 for the second.

Compared with E342K, E342Q is higher in “8OG:A repair function score” value: 0.0199 for the first, 0.0267 for the second.

First: S384A
Second: S384D
The “8OG:A repair function score” value of the first is lower: 0.0362 for the first, 0.201 for the second.

Going from D224T to D224M, the “8OG:A repair function score” value falls from -0.955 to -0.995.

First: E106Y
Second: V301T
The “8OG:A repair function score” value of the first is lower: -1.24 for the first, -0.284 for the second.

Going from A305E to L169C, the “8OG:A repair function score” value falls from -0.0473 to -0.0691.

Compared with R213V, T66A is higher in “8OG:A repair function score” value: -1.01 for the first, -0.0148 for the second.

First: W321Q
Second: V414F
The “8OG:A repair function score” value of the first is lower: -0.205 for the first, -0.187 for the second.

First: S105H
Second: S105P
The “8OG:A repair function score” value of the first is higher: -0.786 for the first, -0.822 for the second.

Going from M93L to A371G, the “8OG:A repair function score” value rises from -0.0284 to 0.0402.

With L215K the “8OG:A repair function score” value was -1.02.
